PMC7703470 (Biosensors & Bioelectronics, 2020)

Target: SARS-CoV-2 nucleocapsid protein (NP) (Severe acute respiratory syndrome …, UniProt P0DTC9)
Experiment: BLI

Row | Binder | Kd [nM]
1 | 12H1 scFv-Fc antibody (scFv, V domains shown) VH: AVTLDESGGGLQTPGGTLSLVCKASGFTFSDRGMHWVRQAPGKGLEWVAGIRGDGSYTDYAPAVKGRATISRDNGQSTVRLQLNNLRAEDTATYYCAKSSYKCSTWSCRGYESDSIDAWGHGTEVIVSS VL: LTQPSSVSANLGGTVKMTCSGGSSGYGWYQQKSPGSAPVTLIYYNDKRPSGIPSRFSGSKSDSTGTLTITGVQAEDEAVYYCGNTDSSYVGMFGAGTTLTVL | 18.3
2 | 12B3 scFv-Fc antibody (scFv, V domains shown) VH: AVTLDESGGGLRTPRGALSLVCKASGFSFSDHGMAWVRQAPGKGLEWVAGISSGGSGTEYGAAVKGRATISRDNGQSTVRLQLNNLRAEDTGTYYCAKTTSPYCGWSGSLDYDCGAEDIDAWGHGTEVIVSS VL: LTQPSSVSANLGETVKITCSGDSNYYGWYQQKSPGSAPVTVIYDNAKRPSNIPSRFSGSKSGSTNTLTITGVQAEDEAVYFCGGWDSDTGTFGAGTTLTVL | 8.47
3 | 12H8 scFv-Fc antibody (scFv, V domains shown) VH: AVTLDESGGGLQTPGGGLSLVCKASGFTFSNYGMDWVRQAPGKGLEWVAGIDNDGSGRGYGAAVKGRATISRDNGQSTVRLQLNNLRAEDTATYYCAKSTYGGRGCCDTTDAWGHGTEVIVSS VL: LTQPSSVSANPGETVKITCSGGGSWYGWFQQKSPGSAPVTVINANTNRPSDIPSRFSGSKSGSTGTLTITGVQADDEAVYFCGSYDSSTDSGIFGAGTTLTVL | 1.31
4 | 1G5 scFv-Fc antibody (scFv, V domains shown) VH: AVTLDESGGGLQTPGGALSLVCKASGFTFSSYGMFWVRQAPGKGLEFVASITNTGSYTTYGAAVEGRATISRDNGQSTVRLQLNNLRAEDTAIYYCAKTSCNNCGWSGPGYIDAWGHGTEVIVSS VL: LTQPSSVSANLGGTVKITCSGGGNDYGWYQQKAPGSAPVTVINTNDKRPSDIPSRFSGSKSGSTATLTITGVQAEDEAVYFCGAYDSSTSADIFGAGTTLTVL | 2.86
